Experimental data as given in paper PMC5529482.

Experiments:
[1] = target: mouse TNFR2-Fc fusion protein (mouse) (UniProt P25119); assay: ELISA; TNFR1-Fc or TNFR2-Fc coated at 1 µg/ml in PBS, 4 °C overnight; TNF muteins in 2% skim milk powder in PBS, 1 h RT; detected with anti-TNF clone F6C5 and HRP anti-mouse IgG
[2] = target: mouse TNFR2-Fc fusion protein (mouse) (UniProt P25119); assay: quartz crystal microbalance; mouse TNFR2-Fc chemically immobilised on a carboxyl sensor chip at low density (130 Hz, non-saturated); muteins 8-256 nM; PBST (PBS, 0.1% Tween 20) pH 7.4, 37 °C; Attana Cell 200; biphasic curves for p53- and GCN4-sc-mTNFR2
[3] = target: mouse TNFR2-Fc fusion protein (mouse) (UniProt P25119); assay: quartz crystal microbalance; mouse TNFR2-Fc chemically immobilised on a carboxyl sensor chip at high density (270 Hz, saturated); muteins 2-32 nM; PBST (PBS, 0.1% Tween 20) pH 7.4, 37 °C; Attana Cell 200
[4] = target: EHD2-sc-mTNFR2 (not stated | mouse) (UniProt P06804); assay: SEC; approx. 20 µg protein on BioSep-SEC-S2000 in PBS, 0.5 ml/min; size by standard proteins
[5] = target: p53-sc-mTNFR2 (not stated | mouse) (UniProt P04637); assay: as above

| Substance | EC50 [1] [pM] | Kd [2] [pM] | koff [2] [s⁻¹] | kon [2] [M⁻¹ s⁻¹] | Kd [3] [pM] | koff [3] [s⁻¹] | kon [3] [M⁻¹ s⁻¹] | stoichiometry N [4] | Kd1 [2] [nM] | Kd2 [2] [nM] | stoichiometry N [5] |
| --- | --- | --- | --- | --- | --- | --- | --- | --- | --- | --- | --- |
| EHD2-sc-mTNFR2 (from UniProt P06804 91-235; P06804 91-235; P06804 91-235) (ligand) | 110 | 118000 | 0.063 | 533000 | 61.5 | 3.74e-05 | 607000 | 2 |  |  |  |
| p53-sc-mTNFR2 (from UniProt P04637 320-359; P06804 91-235; P06804 91-235; P06804 91-235) (ligand) | 74 |  |  |  | 43.7 |  |  |  | 50.9 | 3.97 | 4 |
| sc-mTNFR2 (mouse TNFR2-specific (D221N/A223R) single-chain mouse TNF) (from UniProt P06804 91-235; P06804 91-235; P06804 91-235) (ligand) | 1550 |  |  |  | 449 | 0.000399 | 808000 |  |  |  |  |
